Test results taken from patent US20220411536A1.
pEC50: −log10 of the molar value.

Assays:
[1] = target: unidentified antigen on CHO PD-L1 cells bound by pertuzumab (the filing speculates hamster HER2); experiment: flow cytometry, CHO PD-L1 cells (residual binding)
[2] = target: unidentified antigen on CHO PD-L1 cells bound by pertuzumab (the filing speculates hamster HER2); experiment: flow cytometry, CHO PD-L1 cells; reference pertuzumab

- pEC50 [1]: 8.89
- rel. EC50 (EC50 reference/EC50 sample) [2]: 1
Substance: pertuzumab (antibody)
